Data: IntAct's records for PubMed 19858347

B1: Killer cell immunoglobulin-like receptor 2DS4 (Homo sapiens), P43632 (parent)
chain: MSLMVIIMACVGFFLLQGAWPQEGVHRKPSFLALPGHLVKSEETVILQCWSDVMFEHFLLHREGKFNNTLHLIGEHHDGVSKANFSIGPMMPVLAGTYRCYGSVPHSPYQLSAPSDPLDMVIIGLYEKPSLSAQPGPTVQAGENVTLSCSSRSSYDMYHLSREGEAHERRLPAVRSINGTFQADFPLGPATHGGTYRCFGSFRDAPYEWSNSSDPLLVSVTGNPSNSWPSPTEPSSKTGNPRHLHVLIGTSVVKIPFTILLFFLLHRWCSDKKNAAVMDQEPAGNRTVNSEDSDEQDHQEVSYA
B2: Killer cell immunoglobulin-like receptor 2DL3 (Homo sapiens), P43628 (parent)
chain: MSLMVVSMVCVGFFLLQGAWPHEGVHRKPSLLAHPGPLVKSEETVILQCWSDVRFQHFLLHREGKFKDTLHLIGEHHDGVSKANFSIGPMMQDLAGTYRCYGSVTHSPYQLSAPSDPLDIVITGLYEKPSLSAQPGPTVLAGESVTLSCSSRSSYDMYHLSREGEAHERRFSAGPKVNGTFQADFPLGPATHGGTYRCFGSFRDSPYEWSNSSDPLLVSVTGNPSNSWPSPTEPSSETGNPRHLHVLIGTSVVIILFILLLFFLLHRWCCNKKNAVVMDQEPAGNRTVNREDSDEQDPQEVTYAQLNHCVFTQRKITRPSQRPKTPPTDIIVYTELPNAEP
B3: Killer cell immunoglobulin-like receptor 2DL1 (Homo sapiens), P43626 (parent)
chain: MSLLVVSMACVGFFLLQGAWPHEGVHRKPSLLAHPGRLVKSEETVILQCWSDVMFEHFLLHREGMFNDTLRLIGEHHDGVSKANFSISRMTQDLAGTYRCYGSVTHSPYQVSAPSDPLDIVIIGLYEKPSLSAQLGPTVLAGENVTLSCSSRSSYDMYHLSREGEAHERRLPAGPKVNGTFQADFPLGPATHGGTYRCFGSFHDSPYEWSKSSDPLLVSVTGNPSNSWPSPTEPSSKTGNPRHLHILIGTSVVIILFILLFFLLHRWCSNKKNAAVMDQESAGNRTANSEDSDEQDPQEVTYTQLNHCVFTQRKITRPSQRPKTPPTDIIVYTELPNAESRSKVVSCP

Variants of: B1
Conditions: with hlac_human HLA-C
Target sequence in this assay (P10321 whole entry): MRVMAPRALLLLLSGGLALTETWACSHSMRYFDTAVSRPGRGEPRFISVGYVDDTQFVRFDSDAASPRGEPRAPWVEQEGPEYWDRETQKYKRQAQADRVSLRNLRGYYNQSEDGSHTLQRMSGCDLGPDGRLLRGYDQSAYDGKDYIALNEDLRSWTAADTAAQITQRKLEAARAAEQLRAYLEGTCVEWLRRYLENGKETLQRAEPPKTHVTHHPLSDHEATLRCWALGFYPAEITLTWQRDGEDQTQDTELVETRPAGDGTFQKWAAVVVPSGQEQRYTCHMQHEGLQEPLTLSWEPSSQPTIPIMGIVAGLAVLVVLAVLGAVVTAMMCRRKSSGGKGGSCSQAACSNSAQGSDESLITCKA

Row | Variant | effect of a mutation on the interaction
1 | A205S | with no effect
2 | K65M | disrupting interaction strength
3 | P92Q;V93D | with no effect

Variants of: B1
Conditions: with hlac_human HLA-C
Remark: another data set of the same source
Target sequence in this assay (P10321 whole entry): as above

Row | Variant | effect of a mutation on the interaction
4 | A205S | decreasing interaction strength
5 | K65M | decreasing interaction strength
6 | P92Q;V93D | decreasing interaction strength
7 | I123T | decreasing interaction strength

Variants of: B1
Conditions: with hlab_human HLA-B
Target sequence in this assay (P01889 whole entry): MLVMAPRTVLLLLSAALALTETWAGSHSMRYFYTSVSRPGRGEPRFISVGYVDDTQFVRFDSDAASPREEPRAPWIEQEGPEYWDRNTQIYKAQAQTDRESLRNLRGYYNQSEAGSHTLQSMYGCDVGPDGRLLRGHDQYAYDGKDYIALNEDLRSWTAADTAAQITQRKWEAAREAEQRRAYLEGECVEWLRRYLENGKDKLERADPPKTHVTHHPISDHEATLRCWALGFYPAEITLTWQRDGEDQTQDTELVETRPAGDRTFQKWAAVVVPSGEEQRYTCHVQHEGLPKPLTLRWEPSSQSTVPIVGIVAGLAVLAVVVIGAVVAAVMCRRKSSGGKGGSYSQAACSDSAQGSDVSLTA

Row | Variant | effect of a mutation on the interaction
8 | A205S | causing an interaction
9 | P92Q;V93D | causing an interaction

Variants of: B1
Conditions: with hlac_human HLA-C
Remark: another data set of the same source
Target sequence in this assay (P10321 whole entry): as the sequence (P10321 whole entry) above

Row | Variant | effect of a mutation on the interaction
10 | A205S | causing an interaction
11 | P92Q;V93D | causing an interaction

Variants of: B1
Conditions: with hlac_human HLA-C
Remark: another data set of the same source
Target sequence in this assay (P10321 whole entry): as above

Row | Variant | effect of a mutation on the interaction
12 | K65M | with no effect

Variants of: B1
Conditions: with hlac_human HLA-C
Remark: another data set of the same source
Target sequence in this assay (P10321 whole entry): as above

Row | Variant | effect of a mutation on the interaction
13 | K65M | causing an interaction
14 | P92Q;V93D | increasing interaction strength

Variants of: B2
Conditions: with hlac_human HLA-C
Target sequence in this assay (P10321 whole entry): as above

Row | Variant | effect of a mutation on the interaction
15 | T105P | decreasing interaction strength
16 | Q92P;D93V | decreasing interaction strength
17 | Q92P | increasing interaction strength
18 | Q92P;D93V;T105P | decreasing interaction strength

Variants of: B2
Conditions: with hlac_human HLA-C
Remark: another data set of the same source

Row | Variant | effect of a mutation on the interaction
19 | T105P | disrupting interaction strength
20 | Q92P;D93V | disrupting interaction strength
21 | Q92P;D93V;T105P | disrupting interaction strength

Variants of: B2
Conditions: with hlab_human HLA-B
Target sequence in this assay (P01889 whole entry): as the sequence (P01889 whole entry) above

Row | Variant | effect of a mutation on the interaction
22 | Q92P | decreasing interaction strength

Variants of: B3
Conditions: with hlac_human HLA-C

Row | Variant | effect of a mutation on the interaction
23 | Q92P;D93V | decreasing interaction strength
24 | Q92P;D93V;T105P | decreasing interaction strength
25 | Q92P | increasing interaction strength
26 | T105P | decreasing interaction strength

Variants of: B3
Conditions: with hlac_human HLA-C
Remark: another data set of the same source

Row | Variant | effect of a mutation on the interaction
27 | Q92P | decreasing interaction strength
